Measurements as given in US20050043234A1 (published 2005).
Several values for one entry are separate records, joined by “and”; a condition that tells them apart may be missing. Identical values can stand only once.

B3: zFGF5 (ligand)
chain: EENVDFRIHVENQTRARDDVSRKQLRLYQLYSRTSGKHIQVLGRRISARGEDGDKYAQLLVETDTFGSQVRIKGKETEFYLCMNRKGKLVGKPDGTSKECVFIEKVLENNYTALMSAKYSGWYVGFTKKGRPRKGPKTRENQQDVHFMKRYPKGQPELQKPFKYTTVTKRSRRIRPTHPA

Columns and labels:
Test in all cases: cell-based or functional assay
[1] = biological target: B3
[2] = biological target: FGFR3α-IIIc
[3] = biological target: FGFR2α-IIIc
[4] = biological target: FGFR3α-IIIc; remark: listed apart in the source
[5] = biological target: FGFR2α-IIIb
[6] = biological target: FGFR1α-IIIc
[7] = biological target: FGFR2α-IIIc; remark: listed apart in the source
[8] = biological target: FGFR3α-IIIb
[9] = biological target: FGFR1α-IIIb

B1: FGFR1α-IIIc/Fc (Fc fusion, not shown: a dimerising Fc or GST; small tags and cut ends)
chain: RPSPTLPEQAQPWGAPVEVESFLVHPGDLLQLRCRLRDDVQSINWLRDGVQLAESNRTRITGEEVEVQDSVPADSGLYACVTSSPSGSDTTYFSVNVSDALPSSEDDDDDDDSSSEEKETDNTKPNRMPVAPYWTSPEKMEKKLHAVPAAKTVKFKCPSSGTPNPTLRWLKNGKEFKPDHRIGGYKVRYATWSIIMDSVVPSDKGNYTCIVENEYGSINHTYQLDVVERSPHRPILQAGLPANKTVALGSNVEFMCKVYSDPQPHIQWLKHIEVNGSKIGPDNLPYVQILKTAGVNTTDKEMEVLHLRNVSFEDAGEYTCLAGNSIGLSHHSAWLTVLEALEERPAVMTSPLYLE
Cell Proliferation (percent of control), BAF3/FGFR3α-IIIc cells with zFGF5, soluble receptor at 0 fold-excess [1]: 100 percent of control
Cell Proliferation (percent of control), BAF3/FGFR3α-IIIc cells with zFGF5, soluble receptor at 7.5 fold-excess [1]: 92 percent of control
Cell Proliferation (percent of control), BAF3/FGFR3α-IIIc cells with zFGF5, soluble receptor at 15.4 fold-excess [1]: 96 percent of control
Cell Proliferation (percent of control), BAF3/FGFR3α-IIIc cells with zFGF5, soluble receptor at 31 fold-excess [1]: 99 percent of control
Cell Proliferation (percent of control), BAF3/FGFR3α-IIIc cells with zFGF5, soluble receptor at 62.5 fold-excess [1]: 104 percent of control
Cell Proliferation (percent of control), BAF3/FGFR3α-IIIc cells with zFGF5, soluble receptor at 125 fold-excess [1]: 101 percent of control
Cell Proliferation (percent of control), BAF3/FGFR3α-IIIc cells with zFGF5, soluble receptor at 250 fold-excess [1]: 100 percent of control
Cell Proliferation (percent of control), BAF3/FGFR3α-IIIc cells with zFGF5, soluble receptor at 500 fold-excess [1]: 102 percent of control
Cell Proliferation (percent of control), BAF3/FGFR3α-IIIc cells with zFGF5, soluble receptor at 1000 fold-excess [1]: 92.3 percent of control

B2: FGFR3α-IIIc/Fc (Fc fusion, not shown: a dimerising Fc or GST; small tags and cut ends)
chain: ESLGTEQRVVGRAAEVPGPEPGQQEQLVFGSGDAVELSCPPPGGGPMGPTVWVKDGTGLVPSERVLVGPQRLQVLNASHEDSGAYSCRQRLTQRVLCHFSVRVTDAPSSGDDEDGEDEAEDTGVDTGAPYWTRPERMDKKLLAVPAANTVRFRCPAAGNPTPSISWLKNGREFRGEHRIGGIKLRHQQWSLVMESVVPSDRGNYTCVVENKFGSIRQTYTLDVLERSPHRPILQAGLPANQTAVLGSDVEFHCKVYSDAQPHIQWLKHVEVNGSKVGPDGTPYVTVLKTAGANTTDKELEVLSLHNVTFEDAGEYTCLAGNSIGFSHHSAWLVVLPAEEELVEADEAGSVYAG
Cell Proliferation (percent of control), BAF3/FGFR3α-IIIc cells with zFGF5, soluble receptor at 0 fold-excess [1]: 100 percent of control
Cell Proliferation (percent of control), BAF3/FGFR3α-IIIc cells with zFGF5, soluble receptor at 0.8 fold-excess [1]: 85 percent of control
Cell Proliferation (percent of control), BAF3/FGFR3α-IIIc cells with zFGF5, soluble receptor at 1.6 fold-excess [1]: 66 percent of control
Cell Proliferation (percent of control), BAF3/FGFR3α-IIIc cells with zFGF5, soluble receptor at 3.2 fold-excess [1]: 37 percent of control
Cell Proliferation (percent of control), BAF3/FGFR3α-IIIc cells with zFGF5, soluble receptor at 6.3 fold-excess [1]: 5 percent of control
Cell Proliferation (percent of control), BAF3/FGFR3α-IIIc cells with zFGF5, soluble receptor at 12.5 fold-excess [1]: 1 percent of control
Cell Proliferation (percent of control), BAF3/FGFR3α-IIIc cells with zFGF5, soluble receptor at 25 fold-excess [1]: 0.2 percent of control
Cell Proliferation (percent of control), BAF3/FGFR3α-IIIc cells with zFGF5, soluble receptor at 50 fold-excess [1]: 0 percent of control
Cell Proliferation (percent of control), BAF3/FGFR3α-IIIc cells with zFGF5, soluble receptor at 100 fold-excess [1]: 0 percent of control

B3
EC50 of cell proliferation response [2]: ~1 ng/mL and ~2 ng/mL
EC50 of cell proliferation response [3]: ~10 ng/mL and ~20 ng/mL
Alamar Blue Units (cell proliferation), zFGF5 at 1.6 ng/ml [4]: 1400 Alamar Blue Units
Alamar Blue Units (cell proliferation), zFGF5 at 3.1 ng/ml [4]: 2000 Alamar Blue Units
Alamar Blue Units (cell proliferation), zFGF5 at 6.2 ng/ml [4]: 2580 Alamar Blue Units
Alamar Blue Units (cell proliferation), zFGF5 at 12.5 ng/ml [4]: 3200 Alamar Blue Units
Alamar Blue Units (cell proliferation), zFGF5 at 25 ng/ml [4]: 3760 Alamar Blue Units
Alamar Blue Units (cell proliferation), zFGF5 at 50 ng/ml [4]: 3960 Alamar Blue Units
Alamar Blue Units (cell proliferation), zFGF5 at 100 ng/ml [4]: 4120 Alamar Blue Units
Alamar Blue Units (cell proliferation), zFGF5 at 200 ng/ml [4]: 4200 Alamar Blue Units
Alamar Blue Units (cell proliferation), zFGF5 at 1.6 ng/ml [5]: 0.2 Alamar Blue Units
Alamar Blue Units (cell proliferation), zFGF5 at 3.1 ng/ml [5]: 0.06 Alamar Blue Units
Alamar Blue Units (cell proliferation), zFGF5 at 6.2 ng/ml [5]: 0 Alamar Blue Units
Alamar Blue Units (cell proliferation), zFGF5 at 12.5 ng/ml [5]: 0.4 Alamar Blue Units
Alamar Blue Units (cell proliferation), zFGF5 at 25 ng/ml [5]: 0.2 Alamar Blue Units
Alamar Blue Units (cell proliferation), zFGF5 at 50 ng/ml [5]: 0.5 Alamar Blue Units
Alamar Blue Units (cell proliferation), zFGF5 at 100 ng/ml [5]: 1.3 Alamar Blue Units
Alamar Blue Units (cell proliferation), zFGF5 at 200 ng/ml [5]: 1.3 Alamar Blue Units
Alamar Blue Units (cell proliferation), zFGF5 at 1.6 ng/ml [6]: 2.6 Alamar Blue Units
Alamar Blue Units (cell proliferation), zFGF5 at 3.1 ng/ml [6]: 4.2 Alamar Blue Units
Alamar Blue Units (cell proliferation), zFGF5 at 6.2 ng/ml [6]: 14.2 Alamar Blue Units
Alamar Blue Units (cell proliferation), zFGF5 at 12.5 ng/ml [6]: 29.9 Alamar Blue Units
Alamar Blue Units (cell proliferation), zFGF5 at 25 ng/ml [6]: 86 Alamar Blue Units
Alamar Blue Units (cell proliferation), zFGF5 at 50 ng/ml [6]: 224 Alamar Blue Units
Alamar Blue Units (cell proliferation), zFGF5 at 100 ng/ml [6]: 488 Alamar Blue Units
Alamar Blue Units (cell proliferation), zFGF5 at 200 ng/ml [6]: 912 Alamar Blue Units
Alamar Blue Units (cell proliferation), zFGF5 at 1.6 ng/ml [7]: 241 Alamar Blue Units
Alamar Blue Units (cell proliferation), zFGF5 at 3.1 ng/ml [7]: 480 Alamar Blue Units
Alamar Blue Units (cell proliferation), zFGF5 at 6.2 ng/ml [7]: 715 Alamar Blue Units
Alamar Blue Units (cell proliferation), zFGF5 at 12.5 ng/ml [7]: 977 Alamar Blue Units
Alamar Blue Units (cell proliferation), zFGF5 at 25 ng/ml [7]: 1310 Alamar Blue Units
Alamar Blue Units (cell proliferation), zFGF5 at 50 ng/ml [7]: 1520 Alamar Blue Units
Alamar Blue Units (cell proliferation), zFGF5 at 100 ng/ml [7]: 1720 Alamar Blue Units
Alamar Blue Units (cell proliferation), zFGF5 at 200 ng/ml [7]: 1790 Alamar Blue Units
Alamar Blue Units (cell proliferation), zFGF5 at 1.6 ng/ml [8]: 0 Alamar Blue Units
Alamar Blue Units (cell proliferation), zFGF5 at 3.1 ng/ml [8]: 0 Alamar Blue Units
Alamar Blue Units (cell proliferation), zFGF5 at 6.2 ng/ml [8]: 0 Alamar Blue Units
Alamar Blue Units (cell proliferation), zFGF5 at 12.5 ng/ml [8]: 0 Alamar Blue Units
Alamar Blue Units (cell proliferation), zFGF5 at 25 ng/ml [8]: 1.4 Alamar Blue Units
Alamar Blue Units (cell proliferation), zFGF5 at 50 ng/ml [8]: 19 Alamar Blue Units
Alamar Blue Units (cell proliferation), zFGF5 at 100 ng/ml [8]: 189 Alamar Blue Units
Alamar Blue Units (cell proliferation), zFGF5 at 200 ng/ml [8]: 472 Alamar Blue Units
Alamar Blue Units (cell proliferation), zFGF5 at 1.6 ng/ml [9]: 0 Alamar Blue Units
Alamar Blue Units (cell proliferation), zFGF5 at 3.1 ng/ml [9]: 1.7 Alamar Blue Units
Alamar Blue Units (cell proliferation), zFGF5 at 6.2 ng/ml [9]: 1.3 Alamar Blue Units
Alamar Blue Units (cell proliferation), zFGF5 at 12.5 ng/ml [9]: 0 Alamar Blue Units
Alamar Blue Units (cell proliferation), zFGF5 at 25 ng/ml [9]: 10.9 Alamar Blue Units
Alamar Blue Units (cell proliferation), zFGF5 at 50 ng/ml [9]: 0 Alamar Blue Units
Alamar Blue Units (cell proliferation), zFGF5 at 100 ng/ml [9]: 0 Alamar Blue Units
Alamar Blue Units (cell proliferation), zFGF5 at 200 ng/ml [9]: 0 Alamar Blue Units
